Reference: US20180057581A1 (MorphoSys, published 2018)

What was measured:
[1] = target: T1, Recombinant cynomolgus monkey sgM-CSF (cynomolgus (Macaca fascicularis), UniProt P09603 33-255 (human entry), limits assumed); experiment: Table 12 summary, criterion Binding, Cynomolgus M-CSF; assay and antibody format not named there
T1 construct: used also where only 'cynomolgus M-CSF' is printed (ELISA result, SET); also called cynomolgus sgM-CSF; cyno sgM-CSF
T1 chain: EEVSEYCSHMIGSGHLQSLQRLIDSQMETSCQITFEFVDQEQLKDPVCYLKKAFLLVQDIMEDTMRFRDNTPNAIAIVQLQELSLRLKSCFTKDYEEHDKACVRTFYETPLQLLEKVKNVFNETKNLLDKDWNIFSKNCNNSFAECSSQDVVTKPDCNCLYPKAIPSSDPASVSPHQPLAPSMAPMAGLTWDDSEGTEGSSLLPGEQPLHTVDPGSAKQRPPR

[2] = target: T1, Recombinant cynomolgus monkey sgM-CSF; experiment: Receptor binding assay, inhibition of cynomolgus M-CSF binding to M-CSF receptor (competitor CSF1-R-Fc); Table 12 summary
Experimental: Complexes were then transferred to 384 well MSD plates coated with 2 μg/ml of the corresponding receptor. Plates were then washed and incubated with the streptavidin/ECL conjugate for 2 h with shaking at room temperature. 35 μl MSD read buffer T with surfactant was then added per well and subsequently measured using MSD Sector Imager 6000.

Myoglobin (horse) = Myoglobin (horse) (horse, UniProt P68082 2-154); experiment: MSD specificity profiling, coated protein, Camille at 100 nM
Experimental: (§1) For this specificity profiling test the different proteins and controls were coated on two 384-well MSD plates with a concentration of 1 μg/ml at 4° C. over night. Plates were blocked with BSA and washed three times with PBS with 0.05% (v/v) Tween 20. Antibody samples were diluted to 100 nM and 10 nM in assay buffer (PBS with 0.5% (w/v) BSA, 0.05% (v/v) Tween 20). […] Samples and controls were incubated for three hours at room temperature. The plates were washed three times and 30 μl detection antibody (ECL-labeled anti-human Fab) were added per well and incubated for 1 h. After washing, MSD Read Buffer T with surfactant was added and electrochemiluminescence signals were detected using a Sector Imager 6000 (Meso Scale Discovery, Gaithersburg, Md., USA).

[3] = target: Trypsin inhibitor (Soybean) (Soybean); experiment: as above
Experimental: as §1

Transferrin (bovine) = Transferrin (bovine) (bovine, UniProt Q29443 20-704); experiment: as above
Experimental: as §1

Ovalbumin (chicken) [4] = target: T2, Ovalbumin (chicken) (chicken, UniProt P01012 2-386); experiment: as above
T2 sequence (looked up): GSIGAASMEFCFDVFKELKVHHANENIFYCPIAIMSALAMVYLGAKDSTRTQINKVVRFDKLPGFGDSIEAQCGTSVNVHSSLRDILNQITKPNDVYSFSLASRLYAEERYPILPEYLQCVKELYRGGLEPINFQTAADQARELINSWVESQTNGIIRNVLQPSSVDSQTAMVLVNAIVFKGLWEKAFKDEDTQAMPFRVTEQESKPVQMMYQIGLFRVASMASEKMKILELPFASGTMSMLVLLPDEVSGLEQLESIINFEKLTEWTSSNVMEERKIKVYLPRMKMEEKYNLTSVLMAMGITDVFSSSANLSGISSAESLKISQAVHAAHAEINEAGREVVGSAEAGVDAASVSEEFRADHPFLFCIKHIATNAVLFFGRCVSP
Experimental: as §1

[5] = target: Aminogylcosidase (Aspergillus niger) (Aspergillus niger); experiment: as above
Experimental: as §1

Antitrypsin (human) [6] = target: T3, Antitrypsin (human) (human, UniProt P01009 25-418); experiment: as above
Experimental: as §1

[7] = target: Cell surface receptor 2 (human) (human); experiment: as above
Experimental: as §1

[8] = target: Anti-human Fc (Dianova, #109-005-098); experiment: as above
Experimental: as §1

Trypsinogen (cow) = target: T4, Trypsinogen (cow) (cow, UniProt P00760 18-246); experiment: as above
T4 sequence (looked up): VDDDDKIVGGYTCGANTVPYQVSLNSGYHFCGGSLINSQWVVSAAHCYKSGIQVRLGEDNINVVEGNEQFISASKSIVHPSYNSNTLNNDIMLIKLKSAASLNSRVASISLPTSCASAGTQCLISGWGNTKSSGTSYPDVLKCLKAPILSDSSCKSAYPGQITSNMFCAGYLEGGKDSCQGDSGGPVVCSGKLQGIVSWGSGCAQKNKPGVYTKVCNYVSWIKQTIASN
Experimental: as §1

RNase B (cow) = target: T5, RNase B (cow) (cow, UniProt P61823 27-150); experiment: MSD specificity profiling, coated protein, Camille at 10 nM
T5 sequence (looked up): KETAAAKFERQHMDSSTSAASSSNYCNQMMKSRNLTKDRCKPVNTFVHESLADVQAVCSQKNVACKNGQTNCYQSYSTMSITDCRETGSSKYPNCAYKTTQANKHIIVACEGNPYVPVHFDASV
Experimental: as §1

[9] = target: Trypsin inhibitor (Soybean) (Soybean); experiment: as above
Experimental: as §1

Ovalbumin (chicken) [10] = target: T2, Ovalbumin (chicken); experiment: as above
Experimental: as §1

[11] = target: Aminogylcosidase (Aspergillus niger) (Aspergillus niger); experiment: as above
Experimental: as §1

Antitrypsin (human) [12] = target: T3, Antitrypsin (human); experiment: as above
Experimental: as §1

[13] = target: Cell surface receptor 2 (human) (human); experiment: as above
Experimental: as §1

Serum albumin (human) = Serum albumin (human) (human, UniProt P02768 25-609); experiment: as above
Experimental: as §1

[14] = target: Anti-human Fc (Dianova, #109-005-098); experiment: as above
Experimental: as §1

Aminogylcosidase (Aspergillus niger) (Aspergillus niger), sequence (P69328 25-640): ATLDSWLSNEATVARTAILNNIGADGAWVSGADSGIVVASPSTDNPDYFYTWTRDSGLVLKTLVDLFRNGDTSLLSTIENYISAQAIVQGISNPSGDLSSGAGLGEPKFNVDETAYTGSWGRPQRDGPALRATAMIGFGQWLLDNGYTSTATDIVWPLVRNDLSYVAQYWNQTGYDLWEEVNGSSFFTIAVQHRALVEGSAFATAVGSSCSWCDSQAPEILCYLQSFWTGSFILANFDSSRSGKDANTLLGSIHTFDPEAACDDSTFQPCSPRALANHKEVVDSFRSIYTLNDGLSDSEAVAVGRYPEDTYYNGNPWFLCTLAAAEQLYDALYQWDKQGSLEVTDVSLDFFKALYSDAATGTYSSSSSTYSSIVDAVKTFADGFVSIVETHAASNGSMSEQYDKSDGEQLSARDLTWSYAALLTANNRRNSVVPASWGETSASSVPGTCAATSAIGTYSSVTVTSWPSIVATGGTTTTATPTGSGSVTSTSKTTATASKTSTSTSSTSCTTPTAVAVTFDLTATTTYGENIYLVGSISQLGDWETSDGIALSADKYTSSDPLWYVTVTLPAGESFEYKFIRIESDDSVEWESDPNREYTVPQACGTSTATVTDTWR
Trypsin inhibitor (Soybean) (Soybean), sequence (P01070 25-205): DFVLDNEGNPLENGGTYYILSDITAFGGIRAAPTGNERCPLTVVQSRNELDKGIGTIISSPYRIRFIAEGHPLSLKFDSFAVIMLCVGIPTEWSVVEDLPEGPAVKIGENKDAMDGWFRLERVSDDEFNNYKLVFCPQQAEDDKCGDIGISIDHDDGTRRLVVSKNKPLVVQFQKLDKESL
T3 sequence (P01009 25-418 limits assumed): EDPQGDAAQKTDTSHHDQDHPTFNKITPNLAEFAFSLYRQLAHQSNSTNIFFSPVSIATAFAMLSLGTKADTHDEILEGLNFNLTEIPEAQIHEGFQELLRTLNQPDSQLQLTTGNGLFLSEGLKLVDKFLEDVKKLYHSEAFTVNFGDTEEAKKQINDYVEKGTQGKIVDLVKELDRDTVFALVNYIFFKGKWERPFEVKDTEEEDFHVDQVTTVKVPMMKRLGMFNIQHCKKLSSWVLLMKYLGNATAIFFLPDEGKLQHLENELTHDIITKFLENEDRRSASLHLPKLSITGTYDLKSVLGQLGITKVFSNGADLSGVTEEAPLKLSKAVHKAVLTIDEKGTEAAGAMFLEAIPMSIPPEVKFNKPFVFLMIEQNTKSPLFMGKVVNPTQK
Transferrin (bovine), sequence (Q29443 20-704 limits assumed): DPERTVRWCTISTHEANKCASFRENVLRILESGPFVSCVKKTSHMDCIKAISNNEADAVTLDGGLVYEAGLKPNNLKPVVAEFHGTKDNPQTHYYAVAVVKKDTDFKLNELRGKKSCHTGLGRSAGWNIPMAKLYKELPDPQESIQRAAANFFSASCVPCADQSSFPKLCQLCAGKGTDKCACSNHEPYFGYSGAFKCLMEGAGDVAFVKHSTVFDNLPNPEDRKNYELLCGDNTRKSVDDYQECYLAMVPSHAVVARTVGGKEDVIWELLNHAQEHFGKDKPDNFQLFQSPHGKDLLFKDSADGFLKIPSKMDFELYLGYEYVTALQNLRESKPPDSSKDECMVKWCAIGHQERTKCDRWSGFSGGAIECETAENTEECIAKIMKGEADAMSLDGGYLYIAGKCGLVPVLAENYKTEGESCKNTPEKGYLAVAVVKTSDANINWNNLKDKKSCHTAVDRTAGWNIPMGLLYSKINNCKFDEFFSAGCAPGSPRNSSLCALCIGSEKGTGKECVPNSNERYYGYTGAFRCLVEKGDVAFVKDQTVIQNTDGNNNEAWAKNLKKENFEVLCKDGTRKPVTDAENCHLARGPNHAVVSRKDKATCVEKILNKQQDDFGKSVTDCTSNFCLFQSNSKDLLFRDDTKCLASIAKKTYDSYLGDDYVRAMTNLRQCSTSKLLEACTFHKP
Myoglobin (horse), sequence (P68082 2-154 limits assumed): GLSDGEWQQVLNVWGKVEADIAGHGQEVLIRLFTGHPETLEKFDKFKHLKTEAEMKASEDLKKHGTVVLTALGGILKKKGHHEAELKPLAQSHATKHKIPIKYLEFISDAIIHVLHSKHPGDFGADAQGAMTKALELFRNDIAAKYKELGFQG

B1: Camille (format not stated) (antibody, V domains shown)
VH: QVQLQQSGPGLVKPSQTLSLTCAISGESVSTSSAAWNWIRQSPSRGLEWLGRTYYRSKWKHEYAVSVKSRITINPDTSKNQFSLQLNSVTPEDTAVYYCARDRYYYSAFDYWGQGTLVTVSS
VL: QSALTQPASVSGSPGQSITISCTGTSSDVGGYNSVSWYQQHPGKAPKLLIYAVSNRPSGVSNRFSGSKSGNTASLTISGLQAEDEADYYCASYDERFTRVFGGGTKLTVLG
notes: also called Antibody Camille
Kd [1]: 0.025 nM
IC50 [2]: 0.006 nM
signal normalized to reference antibody MOR03207 (Myoglobin (horse)): 1 ratio
signal normalized to reference antibody MOR03207 [3]: 1 ratio
signal normalized to reference antibody MOR03207 (Transferrin (bovine)): 1 ratio
signal normalized to reference antibody MOR03207 (Ovalbumin (chicken) [4]): 1 ratio
signal normalized to reference antibody MOR03207 [5]: 1 ratio
signal normalized to reference antibody MOR03207 (Antitrypsin (human) [6]): 1 ratio
signal normalized to reference antibody MOR03207 [7]: 1 ratio
signal normalized to reference antibody MOR03207 [8]: 1 ratio
signal normalized to reference antibody MOR03207 (Trypsinogen (cow)): 1 ratio
signal normalized to reference antibody MOR03207 (RNase B (cow)): 1 ratio
signal normalized to reference antibody MOR03207 [9]: 1 ratio
signal normalized to reference antibody MOR03207 (Ovalbumin (chicken) [10]): 1 ratio
signal normalized to reference antibody MOR03207 [11]: 1 ratio
signal normalized to reference antibody MOR03207 (Antitrypsin (human) [12]): 1 ratio
signal normalized to reference antibody MOR03207 [13]: 1 ratio
signal normalized to reference antibody MOR03207 (Serum albumin (human)): 1 ratio
signal normalized to reference antibody MOR03207 [14]: 1 ratio
